{"source": "paper PMC9376891", "about": "(Nature Communications, 2022)", "binders": {"B1": {"name": "Rae1(31-368)-Nup98(157-213) heterodimer (complex)", "chain 1": "DIEVTSSPDDSIGCLSFSPPTLPGNFLIAGSWANDVRCWEVQDSGQTIPKAQQMHTGPVLDVCWSDDGSKVFTASCDKTAKMWDLSSNQAIQIAQHDAPVKTIHWIKAPNYSCVMTGSWDKTLKFWDTRSSNPMMVLQLPERCYCADVIYPMAVVATAERGLIVYQLENQPSEFRRIESPLKHQHRCVAIFKDKQNKPTGFALGSIEGRVAIHYINPPNPAKDNFTFKCHRSNGTNTSAPQDIYAVNGIAFHPVHGTLATVGSDGRFSFWDKDARTKLKTSEQLDQPISACCFNHNGNIFAYASSYDWSKGHEFYNPQKKNYIFLRNAAEELKPRNKK", "chain 2": "not shown", "notes": "also called Rae1-Nup98; Rae1-Nup98 complex"}}, "target": "SARS-CoV-2 ORF6 C3 + YP (SARS-CoV-2 | SARS-CoV)", "sequence (P52948 157-213)": "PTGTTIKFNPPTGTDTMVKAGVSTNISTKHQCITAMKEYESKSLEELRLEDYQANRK", "experiment": "ITC", "conditions": "both partners purified", "data": [{"binder": "B1", "values": [{"measurement": "Kd", "value": 200, "unit": "nM"}]}]}
